In this assay the target is TOPBP1 (UniProt Q92547). Kind of assay: co-IP of FLAG-HTATSF1 with endogenous TOPBP1. To be noted: reference: wild type; sites S748.

“HIV Tat-specific factor 1 (HTATSF1) (from UniProt O43719) S748A”: the “binding against the reference” value is “lost”.

Source of the values: article PMC11208909.
